# Target: HLA-A*02:01 (Homo sapiens, UniProt P04439, D140Y/D185E/D98H/E176V/E277Q/G131W/G231S/I119V/I121R/I166T/I218V/L300P/L318F/N151K/N90K/P208A/P217A/Q86G/Q94H/R138H/R169H/T345S)
# Assay: MHC binding assay: UV-ligand exchange with beta2m ELISA (exchange yield)
# Conditions: binding to HLA-A*02:01, β2m ELISA
# Description: Candidate peptides for T cell based therapies according to the present invention were further tested for their MHC binding capacity (affinity). The individual peptide-MHC complexes were produced by UV-ligand exchange, where a UV-sensitive peptide is cleaved upon UV-irradiation, and exchanged with the peptide of interest as analyzed. Only peptide candidates that can effectively bind and stabilize the peptide-receptive MHC molecules prevent dissociation of the MHC complexes. To determine the yield of the exchange reaction, an ELISA was performed based on the detection of the light chain (β2m) of stabilized MHC complexes. The assay was performed as generally described in Rodenko et al. (Rodenko et al., 2006).
# 96 well MAXISorp plates (NUNC) were coated over night with 2 ug/ml streptavidin in PBS at room temperature, washed 4× and blocked for 1 h at 37° C. in 2% BSA containing blocking buffer. […] Peptide-MHC monomers of the UV-exchange reaction were diluted 100 fold in blocking buffer. Samples were incubated for 1h at 37° C., washed four times, incubated with 2 ug/ml HRP conjugated anti-β2m for 1h at 37° C., washed again and detected with TMB solution that is stopped with […]. Absorption was measured at 450 nm. Candidate peptides that show a high exchange yield (preferably higher than 50%, most preferred higher than 75%) are generally preferred for a generation and production of antibodies or fragments thereof, and/or T cell receptors or fragments thereof, as they show sufficient avidity to the MHC molecules and prevent dissociation of the MHC complexes.
row,Substance,"Peptide exchange (MHC class I binding score, peptide exchange yield)"
1,1 (SLMEPPAVLLL; listed as Homo sapiens) [compound 1],“+++” (≥50 = +++)
2,4 (GIMEHITKI; listed as Homo sapiens) [compound 4],“++++” (≥75% = ++++)
3,5 (HLTEVYPEL; listed as Homo sapiens) [compound 5],“+++” (≥50 = +++)
4,6 (VLVSDGVHSV; listed as Homo sapiens) [compound 6],“+++” (≥50 = +++)
5,7 (SLVGLLLYL; listed as Homo sapiens) [compound 7],“++++” (≥75% = ++++)
6,9 (GAAKDLPGV; listed as Homo sapiens) [compound 9],“++” (≥20% = ++)
7,10 (FLATFPLAAV; listed as Homo sapiens) [compound 10],“++++” (≥75% = ++++)
8,12 (SLWPDPMEV; listed as Homo sapiens) [compound 12],“+++” (≥50 = +++)
9,13 (YLMDESLNL; listed as Homo sapiens) [compound 13],“+++” (≥50 = +++)
10,14 (AAYGGLNEKSFV; listed as Homo sapiens) [compound 14],“+++” (≥50 = +++)
11,15 (VLLTFKIFL; listed as Homo sapiens) [compound 15],“++” (≥20% = ++)
12,16 (VLFQGQASL; listed as Homo sapiens) [compound 16],“+++” (≥50 = +++)
13,17 (GLLPGDRLVSV; listed as Homo sapiens) [compound 17],“+++” (≥50 = +++)
14,18 (YLVAKLVEV; listed as Homo sapiens) [compound 18],“++” (≥20% = ++)
15,19 (FMVDNEAIYDI; listed as Homo sapiens) [compound 19],“++++” (≥75% = ++++)

# More lines, now with the values ahead:
row,"Peptide exchange (MHC class I binding score, peptide exchange yield)",Substance
1,“+++” (≥50 = +++),20 (RMIEYFIDV; listed as Homo sapiens) [compound 20]
2,“++” (≥20% = ++),21 (VLDELDMEL; listed as Homo sapiens) [compound 21]
3,“+++” (≥50 = +++),22 (IMEENPGIFAV; listed as Homo sapiens) [compound 22]
4,“+++” (≥50 = +++),23 (VLLDDIFAQL; listed as Homo sapiens) [compound 23]
5,“++” (≥20% = ++),24 (SLSDGLEEV; listed as Homo sapiens) [compound 24]
6,“+++” (≥50 = +++),25 (FLPDEPYIKV; listed as Homo sapiens) [compound 25]
7,“+++” (≥50 = +++),26 (ALLELAEEL; listed as Homo sapiens) [compound 26]
8,“+++” (≥50 = +++),27 (ILADIVISA; listed as Homo sapiens) [compound 27]
9,“+++” (≥50 = +++),28 (QLLDETSAITL; listed as Homo sapiens) [compound 28]
10,“+++” (≥50 = +++),29 (KMLGIPISNILMV; listed as Homo sapiens) [compound 29]
11,“+++” (≥50 = +++),30 (LILDWVPYI; listed as Homo sapiens) [compound 30]
12,“++” (≥20% = ++),31 (YLAPELFVNV; listed as Homo sapiens) [compound 31]
13,“++” (≥20% = ++),32 (KLDDLTQDLTV; listed as Homo sapiens) [compound 32]

# Source: US10280205B2, “Method for treating cancer with an activated T lymphocyte that selectively recognizes a cancer cell consisting of specific peptide” (immatics biotechnologies GmbH, priority 2015, dated 2019)
